From patent US20060286092A1

Experiments:
[1] = target: B7-H1 (full-length, expressed on BHK cells transfected with pZMP21 hB7-H1) (human) (UniProt Q9NZQ7); test: flow cytometry (PE probe vs anti-CD8 APC) on BHK cells transfected with full-length B7-H1; no competitor
[2] = target: B7-H1 (full-length, expressed on BHK cells transfected with pZMP21 hB7-H1) (human) (UniProt Q9NZQ7); test: flow cytometry on B7-H1-transfected BHK cells; competitor: excess unlabeled BTLA/mFc2
[3] = target: B7-H1 (full-length, expressed on BHK cells transfected with pZMP21 hB7-H1) (human) (UniProt Q9NZQ7); test: flow cytometry on B7-H1-transfected BHK cells; competitor: excess unlabeled NKp30/mFc2
[4] = target: B7-H1 (full-length, expressed on BHK cells transfected with pZMP21 hB7-H1) (human) (UniProt Q9NZQ7); test: flow cytometry on B7-H1-transfected BHK cells; competitor: excess unlabeled BTLA/mFc2 (row printed a second time)

UniProt Q9NZQ7, sequence (Q9NZQ7 19-290): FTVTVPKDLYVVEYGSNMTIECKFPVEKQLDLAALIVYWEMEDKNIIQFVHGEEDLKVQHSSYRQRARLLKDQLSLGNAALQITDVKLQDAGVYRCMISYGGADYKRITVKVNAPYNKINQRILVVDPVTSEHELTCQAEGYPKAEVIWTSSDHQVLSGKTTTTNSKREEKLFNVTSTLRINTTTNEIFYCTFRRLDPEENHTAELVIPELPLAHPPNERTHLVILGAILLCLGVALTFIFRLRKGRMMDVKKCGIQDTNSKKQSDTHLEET

% double positive [1] [%]	% double positive [2] [%]	% double positive [3] [%]	% double positive [4] [%]	Substance
1.96	–	–	–	BTLA/mFc2 (Fc fusion)
33.7	28.8	31.4	28.8	PD-1/Fc (Fc fusion)
1.91	–	–	–	Zenon control
